Data on 2 substances can be found in patent publication US20100227805A1.

What all share (experiment): cell-based or functional assay
The target in assay [1] is murine MIP-1β (CCL4) (murine) (UniProt P14097).
The target in assay [2] is murine RANTES (CCL5) (murine) (UniProt P30882).
Assay [3] concerns the target human MIP-1α (CCL3) (human) (UniProt P10147).

Chain of murine MIP-1β (CCL4) (murine) (P14097 24-92 limits assumed): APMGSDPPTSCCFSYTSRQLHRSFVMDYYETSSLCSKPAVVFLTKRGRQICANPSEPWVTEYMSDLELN
Chain of human MIP-1α (CCL3) (human) (P10147 27-92 limits assumed): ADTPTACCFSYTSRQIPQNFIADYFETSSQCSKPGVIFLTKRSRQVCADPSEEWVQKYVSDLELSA
Chain of murine RANTES (CCL5) (murine) (P30882 24-91 limits assumed): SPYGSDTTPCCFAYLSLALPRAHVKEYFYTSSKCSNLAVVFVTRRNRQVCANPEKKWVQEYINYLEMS

With mCCR5(EC3)-IgG (Fc fusion), the inhibition of chemokine-induced THP-1 cell migration (transwell chemotaxis assay) in assay [1] and in assay [2] was 50% in each case. hCCR5(EC2)-IgG (Fc fusion) showed an inhibition of chemokine-induced THP-1 cell migration (transwell chemotaxis assay) in assay [3] of 50%.
